What was measured:
[1] = target: full-length human G-CSF receptor (human) (UniProt Q99062); test: cell-based or functional assay
[2] = target: endogenous IL-3 receptors of BaF3 cells (UniProt P26952); test: cell-based or functional assay
Chain of UniProt P26952 (P26952 17-396): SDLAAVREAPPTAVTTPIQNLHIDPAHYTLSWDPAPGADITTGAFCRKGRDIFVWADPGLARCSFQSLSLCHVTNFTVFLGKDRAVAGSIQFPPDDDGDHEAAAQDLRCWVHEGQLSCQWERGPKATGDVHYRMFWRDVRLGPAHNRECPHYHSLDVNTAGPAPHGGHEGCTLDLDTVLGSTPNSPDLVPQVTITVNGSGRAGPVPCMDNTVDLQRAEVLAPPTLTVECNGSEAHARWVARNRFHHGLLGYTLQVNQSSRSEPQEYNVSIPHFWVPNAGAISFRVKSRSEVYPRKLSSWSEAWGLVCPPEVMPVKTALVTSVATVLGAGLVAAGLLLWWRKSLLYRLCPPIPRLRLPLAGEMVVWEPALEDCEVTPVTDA

Chain of UniProt Q99062 (Q99062 25-836): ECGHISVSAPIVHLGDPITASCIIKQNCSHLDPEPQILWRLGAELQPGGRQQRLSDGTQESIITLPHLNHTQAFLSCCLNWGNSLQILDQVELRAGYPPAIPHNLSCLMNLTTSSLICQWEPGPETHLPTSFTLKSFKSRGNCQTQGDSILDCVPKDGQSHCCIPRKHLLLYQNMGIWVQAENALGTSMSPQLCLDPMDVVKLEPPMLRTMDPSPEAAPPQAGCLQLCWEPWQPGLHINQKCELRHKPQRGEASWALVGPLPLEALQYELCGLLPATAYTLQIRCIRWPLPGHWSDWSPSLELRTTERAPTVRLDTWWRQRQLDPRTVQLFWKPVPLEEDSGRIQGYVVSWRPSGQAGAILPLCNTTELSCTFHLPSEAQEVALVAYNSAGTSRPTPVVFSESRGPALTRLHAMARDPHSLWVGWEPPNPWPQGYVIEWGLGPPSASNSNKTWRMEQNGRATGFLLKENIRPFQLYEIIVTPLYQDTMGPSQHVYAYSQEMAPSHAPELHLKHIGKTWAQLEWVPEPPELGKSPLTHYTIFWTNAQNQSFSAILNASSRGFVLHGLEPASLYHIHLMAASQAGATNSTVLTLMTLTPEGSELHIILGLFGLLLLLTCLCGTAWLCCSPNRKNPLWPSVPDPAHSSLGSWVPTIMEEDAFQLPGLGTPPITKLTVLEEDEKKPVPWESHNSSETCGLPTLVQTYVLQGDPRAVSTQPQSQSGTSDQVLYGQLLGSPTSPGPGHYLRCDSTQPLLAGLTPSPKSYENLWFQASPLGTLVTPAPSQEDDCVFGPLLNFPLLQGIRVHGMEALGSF

G-CSF (ligand) showed a luminescence output-fold stimulation over background (assay medium alone); luciferase reporter, HuG-CSFR-luc (clone 40) cells, 0.8 ng/mL and 5.0 ng/mL GCSF, four hours [1] of 3 fold.
In the case of “recombinant murine interleukin-3 (from UniProt P01586 33-166) (ligand)”, the PLAP reporter activity (4-MU fluorescence 360/460 nm), +IL-3, - filtration; 3X-RS-pGTPLAP in BaF3, 25 ng/ml rMuIL-3 [2] is reported as 85, the PLAP reporter activity, +IL-3, + filtration; 3X-RS-pGTPLAP in BaF3 [2] is reported as 82 and the PLAP reporter activity, +IL-3, + filtration; 6X-RS-pGTPLAP in BaF3 [2] is reported as 177. The PLAP reporter activity, +IL-3, + filtration; 9X-RS-pGTPLAP in BaF3 [2] was 257, the PLAP reporter activity, +IL-3, + filtration; 12X-RS-pGTPLAP in BaF3 [2] was 384 and the PLAP reporter activity, +IL-3, + filtration; Greater than 12X-RS-pGTPLAP in BaF3 [2] was 389. The PLAP reporter activity, +IL-3, - filtration; 6X-RS-pGTPLAP in BaF3 [2] was 175, the PLAP reporter activity, +IL-3, - filtration; 9X-RS-pGTPLAP in BaF3 [2] was 276 and the PLAP reporter activity, +IL-3, - filtration; 12X-RS-pGTPLAP in BaF3 [2] was 402. The PLAP reporter activity, +IL-3, - filtration; Greater than 12X-RS-pGTPLAP in BaF3 [2] was 384, the PLAP reporter activity, +IL-3, average - baseline; 3X-RS-pGTPLAP in BaF3 [2] was 70 and the PLAP reporter activity, +IL-3, average - baseline; 6X-RS-pGTPLAP in BaF3 [2] was 160. It also gave a PLAP reporter activity, +IL-3, average - baseline; 9X-RS-pGTPLAP in BaF3 [2] of 250, a PLAP reporter activity, +IL-3, average - baseline; 12X-RS-pGTPLAP in BaF3 [2] of 375 and a PLAP reporter activity, +IL-3, average - baseline; Greater than 12X-RS-pGTPLAP in BaF3 [2] of 370. It also gave a fold stimulation (avg +IL-3 / avg -IL-3); 3X-RS-pGTPLAP in BaF3 [2] of 3.5 fold, a fold stimulation (avg +IL-3 / avg -IL-3); 6X-RS-pGTPLAP in BaF3 [2] of 5.4 fold and a fold stimulation (avg +IL-3 / avg -IL-3); 9X-RS-pGTPLAP in BaF3 [2] of 6.2 fold. The fold stimulation (avg +IL-3 / avg -IL-3); 12X-RS-pGTPLAP in BaF3 [2] was 8.4 fold and the fold stimulation (avg +IL-3 / avg -IL-3); Greater than 12X-RS-pGTPLAP in BaF3 [2] was 11.2 fold.

Reference: patent US7892733
